Experimental data reported in patent US20160257756A1 (CONSEJO SUPERIOR DE INVESTIGACIONES CIENTIFICAS C S I C, published 2016).

Target: T1, human chemokine receptor CCR9 (human, UniProt P51686 1-369, N-glycosylated at Asn32 on cells (removed by PNGase F in some Western blots); the letters do not carry this)
T1 construct: On stably transfected HEK293 cells, endogenous on MOLT-4 cells, thymocytes and blood lymphocytes; also as membrane extracts in Western blots (with or without PNGase F); also called hCCR9; human CCR9
T1 sequence: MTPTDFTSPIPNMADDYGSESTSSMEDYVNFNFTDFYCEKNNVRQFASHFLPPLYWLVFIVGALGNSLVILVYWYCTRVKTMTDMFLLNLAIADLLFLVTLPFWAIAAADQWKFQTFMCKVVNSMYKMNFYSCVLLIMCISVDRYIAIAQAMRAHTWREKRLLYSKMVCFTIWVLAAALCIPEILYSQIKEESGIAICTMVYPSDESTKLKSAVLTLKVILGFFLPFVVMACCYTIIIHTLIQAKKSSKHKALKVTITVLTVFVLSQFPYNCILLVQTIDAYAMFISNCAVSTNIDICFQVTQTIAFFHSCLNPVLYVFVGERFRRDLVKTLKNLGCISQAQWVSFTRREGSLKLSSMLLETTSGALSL
Test: flow cytometry on MOLT-4 cells, hCCL25 10 µg/ml before 91R (0.5 µg/ml)
Procedure: To study whether CCL25 affects CCR9 recognition by 91R, MOLT-4 cells were preincubated alone or with hCCL25, in the presence of sodium azide to inhibit receptor internalization (40 min, 4° C.), followed by incubation with 91R and flow cytometry analysis.

B1: recombinant human CCL25 (ligand, UniProt O15444 24-150, looked up)
chain: QGVFEDCCLAYHYPIGWAVLRRAWTYRIQEVSGSCNLPAAIFYLPKRHRKVCGNPKSREVQRAMKLLDARNKVFAKLHHNTQTFQAGPHAVKKLSSGNSKLSSSKFSNPISSSKRNVSLLISANSGL
notes: Bought (Peprotech); also called hCCL25; TECK
Does B1 bind?
Result: binds
